Measurements taken from PMC6929626, “PET/MRI enables simultaneous in vivo quantification of β-cell mass and function” (Theranostics, 2020).

Target: T1, GLP-1R (Mus musculus, UniProt O35659)
T1 construct: high expression level of glucagon-like-peptide-1 receptor (GLP-1R) on the surface of β-cells enables their specific detection and quantification in the native pancreas; from tissue; host or cells: pancreas and insulinomas of living control and RIP1-Tag2 mice
T1 sequence (O35659 22-463): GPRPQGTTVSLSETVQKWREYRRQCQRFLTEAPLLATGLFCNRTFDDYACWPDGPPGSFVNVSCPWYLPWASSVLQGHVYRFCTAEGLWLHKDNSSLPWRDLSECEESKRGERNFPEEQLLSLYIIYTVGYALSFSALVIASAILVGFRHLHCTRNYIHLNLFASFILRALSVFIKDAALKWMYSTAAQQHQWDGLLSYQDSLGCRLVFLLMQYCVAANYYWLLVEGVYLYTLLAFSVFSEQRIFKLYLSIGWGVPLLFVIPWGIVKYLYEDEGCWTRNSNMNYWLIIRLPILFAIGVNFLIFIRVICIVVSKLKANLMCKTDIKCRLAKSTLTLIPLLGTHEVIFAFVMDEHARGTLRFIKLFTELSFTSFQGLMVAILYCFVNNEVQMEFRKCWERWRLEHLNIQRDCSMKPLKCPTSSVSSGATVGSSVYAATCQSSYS
Parameters: species or system mice
Conditions: in vivo
Experimental: In brief, mice were fasted for 4-6 hours and anesthetized with 1-2% isoflurane/O2 gas mixture (Vetland, Louisville, KY, USA) before the in vivo measurements. A tail vein catheter was initially placed for the co-injection of 50 µL of tracer solution (0.12 MBq/g bodyweight) and 50 µL of MnCl2:Bicine solution (75 µmol/kg body weight). The animals were placed in supine position on the bed in order to attenuate the motion artifacts rising from the respiratory movements. Thus, [^64Cu]Ex4 and MnCl2 solution were co-injected i.v. as a bolus a few seconds after the beginning of dynamic PET measurements. […] PET quantification was performed by 20-min static frames acquired simultaneously with 7T MRI scanner using a compatible PET-insert or consecutively using an Inveon-PET scanner (Inveon Dedicated PET, Siemens Healthineers, Knoxville, TN, USA). […] During the acquisition, we monitored the breathing with an MR-compatible breathing sensor. […]
The volume of interest (VOI) for the entire pancreas (Pancreas^Control; Pancreas^RIP1-Tag2) and the detected insulinomas (Insulinomas^RIP1-Tag2) were manually drawn in Inveon Research Workplace (Siemens Heathineers) after co-registration of the PET images. […] The co-registered VOIs were exported and analyzed in MATLAB (R2013b; The MathWorks, Natick, MA, USA) using an in-house script. […] For the quantification, we considered voxels with R1 values between 0.4 and 10 s^-1. […]

[^64Cu]Cu-NODAGA-^40Lys-Exendin-4 [[^64Cu]Ex4]
dynamic PET curve of pancreatic uptake: stable pancreatic uptake after 20 min until 1 h
